Source: the domain aggregation screens of Martell et al. (2025)

experiment: soluble fraction after stress (log2 fold change); higher = more stays soluble; pooled small domains, quantitative proteomics; conditions: stress: 50 degC
Procedure, shortened: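 Pooled custom libraries of small protein domains were each held under stress at 50°C. The read-out, high-throughput quantitative proteomics, tracked how much of each protein stayed soluble. This is reported as a base-two log fold change used to indicate aggregation propensity. Higher values mean more protein remains in solution.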

Row | Sequence | soluble fraction (log2)
1 | HMGEGRVRLAQEAANRFMTAMAGDRPGFEEAGRALFAGDRARFHAETEGWPEDIRDHARRLAEPALQ | 0.0288
2 | HMKPSTETLYATARINVRAAADTSAEKLGSIEMGEAVVRTGTDGDWSIIEYNGSTGYVKSEYLTANAGDAT | -0.0962
3 | HMVSLTGEWRPSKDALDILITKGGINPNFIDDAVPEFILYWRDRGDVSNTWDSKFIQHVRRQWQFYTGI | -2.93
4 | HMNLVGGKINSLMTTKNVTIQDLSERSGLTVSQIELLLSGDKVPSLAVLIKIARGLGVRVGTFL | -1.3
5 | HMDAKSRFQEWVQAETGITPTYRIIGDSGPDHAKTFIAQVLLGERVVGEGVGSSKRAAEQAAAQAALAAM | 0.186
6 | HMSIELEISADGNNYRVSGLSDGEDVRVYSVSGVQVFSGKAQGGEVVIPADNWNKGIYVISAGGSSVKVL | -0.196
7 | HMKEDFPLLEQLRYTGEGADVTGTAEKMESIQALRSAADSGGFRATLGDIQQIPGGGLRFTLSLRGSR | 0.0335
8 | HMKPTGWVRGDMGVVDKGQLSITQGTVNVRSGPGLSYEILDQVRRGDRFPVIKSQSGWHNISM | 0.0818
9 | HMQVSDAAQLAEVVKTVLAENPAAVGDYRKGKKAAIGFLLGQVMRHMRGTANPAVARQLLEQALEDE | 0.0337
10 | HMLEPGQKVKSVVVDISGDLIYIDLGGKTEGVVELKEFYDEAGEYHVKPGDEIEVFFVSVQNGLKRFTT | -0.0167
11 | HMNSVTLEHIVYDFRVFNMLKGSGINDIDELIKAAEDGRLFKIIGSNLTYKRIKKSAAEFGVILPDKPG | -0.351
12 | HMGQPRPLTAEDFDFLSDDEIAEMRKALSNGEMLRLRELIAQIGEKRPFLAERLLVLAKQYNYEDLSRLLE | -0.374
13 | HMTGSLLVEVQGRPDADRLLGQALVDAGLTARPAGGALIEVEVRDETTPDVVRDLTVDLGLGLVRMQERH | -0.702
14 | HMGRPQISDELRNAIIEVAKDNRDWGYIRIQGQLKYLGYRVSTATIGKVLKKAGLEPQPDRRRK | -0.264
15 | HMLSFSEAERAVLSLLNRRPDLSAKALASELAVSARTVERYLQSLQQKGKLLRVGAKKGGYWQV | -0.478
16 | HMEYNLTLEELNRDLYIRGEIWNVGDVVKTTDGDEGTIIRKGTNYVVFEDLRRVWLHNLEEVK | -1.85
17 | HMEIFYGDDRVYTVSLHGQNNFPFRKKTSDFDYGFEDGTGDEEYLRVLDVTLSRLENEQFDLLFFQAGV | -0.203
18 | HMQGEASDAQLKAIFAIARKLGITDDFEVHRKASRLAGVPEPEVLPSLKSLTYAQASAVIKALQEELE | 0.084
19 | HMALKSYEDMVGKTGVAYTVLRPSGKVIINDELFDATARSGMIEKGNEVIIYDYKNAQLIVEK | 0.0774
20 | HMNILAPFWERFGLSAFAAGNYDRAEGYFRKLEQKDPNSMSVLRNLGLILMAKGDAEGAEAYLLREEKL | -0.67
21 | HMSASSEALKTAVRKVLLNNRMTQDRMARDAGLSGSALSQWLHGKYQGDVPALEGRLAAWLADTQAS | 0.0546
22 | HMNLDVEQIKKEALNQLIEIGNENDGIVTIKDFKKIDDISSLDEDDIEDIRNLLIENNIEIFE | 0.127
23 | HMSPSTNKTFSFSKENISIGQTVFIKKLNQNATVLTLPNKSNQLQVQFGVITMNVKLEDLALPTN | -0.171
24 | HMGELVIPPLRERTVVDAVAEAERLGFVVQVEPVASSLPEGRVLGQSPEPGTRARKSQVVVLQVSRG | -0.148
25 | HMAPKVHLLKVPVDKIREIIGTGGKVIRQITEETGAKIDISDDGSVKVSSPDQSSIDAATTWITGIIAE | 0.0652

Row | Sequence | soluble fraction (log2)
26 | HMALKSGVIAHAVDDAVMRGLNVFTVSDDGSIVSMKDNDIVLGKDGKSPYSVSEWLEELKPNVPHWFG | -0.0243
27 | HMDDTRLELTLLGKIHNDEEINKQSHINVNIKNGVILLTGESPRREITERILTLARTFEHTRQIVNQIAT | 0.116
28 | HMSIMNLSEKIVVLRKSNGMSQEELAEKLYVSRQAVSRWEMGTAVPDSTNILQLGKLFHVTTDYLLNDEYE | -3.19
29 | HMVDEAQSLERNVLLTVLSRIGRDSRVVLTHDIAQRDNLRVGRHDGVVAVVDRLKGHPLFAHVTL | 0.012
30 | HMDIVQLSEKINVMKMEIPAQAIGKTVLEVNFRARFDLNIIAIENGGKLVEVIKPDYVFREGDILFLSGS | -1.16
31 | HMQQVIEGLDSDRDFITVPEAIALFAVGRQTLYHYIRSGKIPSVNLGQRLTRLSKKQLGELFPLR | -1.63
32 | HMQSVEELLDAIGDERLLHILLEADRKTLQIVVLKMMGYAPKEIGSHIGMPEQTVYTKLRRLREKIKKI | -1.49
33 | HMVEMPEVGVKVRIEVESHNGSTNFEGIVLHPASKGHLTLKLINGYNASYLIEEIRNLEIIDSS | -0.271
34 | HMETALYVEDLDRAVRFYESVMGLNTMSRGVRLVALDAGEGTVLLLFLRGATTSGASFEGGWIPPH | -0.0244
35 | HMSENDTILAKFASIINNKSLELVIFPDTAYLKGQVSTPEDKARAETVAQSLLGSKPLISLIEFE | -0.0145
36 | HMERYSVQVGSFRNMRYAERLKQELQGEDFPAYIEKSGEFNRVRVGKGLTLEEATQLEQVLRKSGYQTVIV | -0.395
37 | HMAKRQATIVYEGTNVRSGPSTSSAIVKRTGKGESYPIVSTKGDWYEIKLSNGDSAYVASWVVQTVD | -0.328
38 | HMDGPELYESMKAIVPDQLDRTIFLTGGAYTPRAQEFLARVPNQQMEKPFEFEALRSLLARLT | 0.0477
39 | HMSFGYFQLRAKDPQKLKSVLEKIPQIQSIKEEKGDLIGYLNADMEAEELSQKLAAAKIFVTHMAKKK | -0.0166
40 | HMIKLSEAEWKVMKLLWEESPKTMMQITNLLKETTGWTKHTVMTFLKRMEEKKAIHYEEGGRAKLYYP | -0.589
41 | HMTPEGAYTVSEIVKVINSFADEYKVPFTMHVSGYKYEEIAQQLGLPIGTVKSRIFFARKRLQELLN | -0.952
42 | HMIAANMTISQRIAAALAEYGVMSVKDIAQEVLGATDKKDTEKIRVTLTRDHGKRFRTYSDGTWSLKDWRP | -1.12
43 | HMRRPRGVFNLVPRGFKRFGFITPDGGGEDMFAHLENVRAGHVVEDRNAVEYGIGRGPDGRDQAVDIVPVP | 0.049
44 | HMGTSIMIIIVKPETKKERVNDLIHWIESQNLRTHLSTGDYSTIIGVIGDTSKLDSELIRGLDIVENVKRV | -0.318
45 | HMESRTQVYDFYKDLFREKRRPLRAEEMLSALKSQRGIVGVNQYQIIEQHGIVRLSGSGRSALYWDTDLGS | -2.74
46 | HMGPLPIDSRYFNNLVPYTGITHVNSVIPEAERHIGLTVVVKTGSTYSEYWYRTGVTNSSLELKT | -0.634
47 | HMAGTELASIKEIQSLVDRSEEALSARNFFWPKDKSESMLLSFRNMFSRLKLTKMDVQIFHGIFKVMEKS | -0.0116
48 | HMEAADAGTLAQRAAQYFNEKNYAAALDALERRAAMAPETTELRMMRGWSLLHLNRKDEARNAFATLG | -0.0562
49 | HMKDESQLVGAEGKAVTPLRPTGVALIGEKRLDVLTEGEFIPRNSDIIVSRVEGNKIIVKLKN | 0.177
50 | HMTGSLRIKHKTYYMLFSWKDESGQWRQKSESTGIPERGGKRKAQEMLNTRLEELQLQSTASL | -3.75

Row | Sequence | soluble fraction (log2)
51 | HMGNFFDSAILALKNAIQENYGGNVSQAARSLGISVPTLHTWIKGDRKPSLEKLSPILDALNAKIVL | -0.726
52 | HMEYTVNHYPEKHRFEVVEDGLTAYVEYRLRGDALDIIHTIVPKNLEGRGIAATLVETAYKYAKEQ | -1.2
53 | HMSSPVIQINTRNDGWIIKLLQPAVEKDVLEGYLADVGLKLQSQMMEKILAAPAGTEFHIKRGSNILTE | 0.00933
54 | HMASVGTHIKRLRAAKRMTQEELAEQLHVTRQAVSAWETGKALPDVEMLERIAAALDADVTEVIYGA | 0.0402
55 | HMGAWQQTGFFRNRENAESLAEVLRQRGFSPVVREDTRPSGTVYYAVLVPDDGTTAARLKDAGIDSYPV | 0.0695
56 | HMRPEFVVALSGADLGKLHRLYELGEVLSREDDAEGVTHAVLRVPDKHEHAFHAEFPQARPM | 0.378
57 | HMINLTKVGNFISIIKLQQIWTIDELLKKVDINYDELLYLLTILSDIYSKNGEYFFDFDIDAENNKILFNN | 0.42
58 | HMNELPSVIIMKNGRTRPYELQEISKDEEWLNQTIREHGIEPKDIFIAEFWDGRTAFILNDGRIVK | -0.555
59 | HMGDERDRLLLARGKRIYQELIGSDRENVAAALREFEAVLAVNNRRAIHVMRQRLAELFGVYEEFLNEEFL | -2.77
60 | HMRTGSSVLVGLVAPVRLGATGAPKVFADGALWEARSAVPLNDGQLVEITGTDGLTVLVKPSA | 0.0494
61 | HMNKDWQDEVALQRYTMITPLLSEDLDNAKRIAMREKIAQDNLTTARSLYRYEKAYRENGFQGLRPTD | -0.146
62 | HMRVLEYTADGSRLDVLLSQDGVLSRSRAAELIKGGAVTVDGRAEGKPSAKPAPGALVRVEVPE | -0.01
63 | HMNATQLSNTQKQIRTQLLERLSNNPLTVKQLADRMFVPIDTILKEITALIQEQKIIEDKGGKLQIN | 0.0217
64 | HMDGLDFIINENGKIANINEEGELLAKGENIMLGYYKDSISTNNTINNGWLHTGDIAKIDNDGFIYL | 0.0618
65 | HMARLEELSNGSIVEGLLSGEAVTVVSTKWYGSSSMEVFYKTNRGSTGSQILYREDEPSLTVLEKS | -0.32
66 | HMQKKEVTVPEVRSKSLKEAAQILSEQNLKYETEPVNVENPDMVVIDQFPKPGGKISEQSVIILYLR | ≥ 0.62
67 | HMDRPLRTKEHFARFAGEQVVVKTSSPIDGRSSFTGTLEGMEGDDVIVEVDGSRIAIGYSLIKRAHVVG | 0.117
68 | HMQVPVNVSMEILDWVIAHIKIDALPNQIREYLNLWVNGEKEPTFNQVEKVSKATGIPLGYFFLQTPPIED | -1.66
69 | HMEEVIEVEGKITAVLPSTMFRAELENGHQVLAHISGKLRKHFIKITVGDIVKMEMSTQDLQKARIV | -0.307
70 | HMKDSIQIPNVVGMTIKDAQSQYGKSFSIIEQNRTESTKPAGTILEQTPAGGDTVSKRDNIIIRVVVSLG | 0.132
71 | HMNDILETISNQIRDLRVSKKITQQELAERTNLSVPYISQIENGHRNISLETFIKIVDALDIPLSDFFLP | -1.03
72 | HMFPELSPEEQLIVEVLSKTNDLQVNLISVKTNIDISRLTSLLFTLEMKGVIKTFAGGMYHLL | -0.538
73 | HMGGLAVQLVHAMTDQIRSGRLKAGDKLPTEAAIMKDFGVSRTVVREAISRLQASGWVDTRHGIGTFVLHQ | -1.3
74 | HMQSYHVGDKVTIKNSASHWATGQSIYNGVKGHTYKIIQTNGHKLLLDQVISWINDGDVYKAGS | -0.492
75 | HMTGLSFEEKDLLGNALKLLDETERRIVILHATSGLKHREIAKQLDIPLPTVLSKYTRAIKKLKKHME | -0.0942
